This data set can be described thus: label from the status in PepcDB records.
Regarding “MKYIIIGLGNYGHVLAEELSTLGHEVIGADLDEGRVDSIKDKIATAFVIDATDEQSLSVLPLNSVDMVIVAIGENFGASIRVVAMLKQKQVKHIYARAIDGVHKAVLEAFGLEKILTPEEDAARSLVQLLDFGTKMETFRVDSEYYVVKFNVPEKFVGYFVNELNLDEEFNLKLIGLKRSNTIKNCLGISLVEHKVVNELPEDAKIRPDDVLVCYGKYSDFQKLWKALLEHHHHHH”, the protein production entry was “not failed”.

On to “MKYISPGFVDAHSHIGMIPDGLEWEFQEANDFYSPIAPHLRAVDGFDPYDEAFKEAIAGGVTTVATGPGSANVMGGIGLLAKTYEEGFEKIIKPEAFIKMALGPKRPREYKSKYPYPTTRMGTVALMRTWFKRAREFMEGKIKTDNIDEEEIEMLRLLARALKREIQVKIHLSTSPDEIYAAIRIIKEFNLNATIDHAFGSQLVADMLSREGIPVIYGPPMITRIASFFRYVDDKAPVLLFKKGVNVSIMTDHPVLPEKHLRLLAAVVARNGLSLDDALKLITINPAKALGIDRFVGSLEHHHHHH”, for which the protein production result is reported as “failed”.

For the sequence “MKYIVAVNASPRSGWNTSQLVEAAAKGAKEAGATVDIIDLYKLEPFQGCISCFGCKLPRTFGRCVSKDGLSEVLDKIRKADGLILGSPNYLGNLTAGFRALYERLIFQSLTYNKERPNCNEHMIPVLLITTSNCDESIYDKIGYTSMLEGYKQMLERFVGPLEHHHHHH”, the protein production entry is recorded as “failed”.

Regarding “MKYKAAIFDMDGTILDTSADLTSALNYAFEQTGHRHDFTVEDIKNFFGSGVVVAVTRALAYEAGSSRESLVAFGTKDEQIPEAVTQTEVNRVLEVFKPYYADHCQIKTGPFPGILDLMKNLRQKGVKLAVVSNKPNEAVQVLVEELFPGSFDFALGEKSGIRRKPAPDMTSECVKVLGVPRDKCVYIGDSEIDIQTARNSEMDEIAVNWGFRSVPFLQKHGATVIVDTAEKLEEAILGE”, the protein production entry was “not failed”.

Regarding “MKYPIVPLTKFGLFRAQTYAVLKRPYLVTALVSYFMVALLVIIYLNKAPSFTSDMEMVLPGTGSSNSVSLDNVGQVVSQTNTPFSGGGFNPRVNYKEMLSSRGVRARAAKKLHLSLEDLGEPRIKLTEQTSIISLEMSANGQELAQAKTLALYESLQDELNNLRADEVLRRDQSIEQVLDRYRERMNITRNAIVDFQQRSIVVSTDQMDQLVRTLSGVREKHLYVKAETKQLQEYIYQLSDELGVSPKLAGQAFALQSDVEFRAYITELKESITQLTEYSSRWGVNHPKVKAQQKRLNFTRISINERSSQMYGVNSNEIFNSLNLDLNPKRSELFADLIDAYAKQKGQESMLEDLGRSALHLGDQLKIYSREIVELERLQREFNMAEAIFTSAAARLEASKSDVFASYPVLQMLTTPSYPMKQSSPKNIIAFIGAITGFIFITLGLIILSQRNKLIQIILKKEETTSSNS”, the protein production entry is “failed”.

Take “MKYRFIDHTADIAFEVYGSNLRELFENAALAFYDAFVDTSGIGIEREVGVECEGEDVEITLYRWLNELLYLFDTEFFAAKDVEVEVEEGDGVKASGKLRGGRFSAEMVKVEPKAITLHKFRVEKTDKGYVAFVVVDI”: the protein production result is listed as “failed”.

Turning to “MKYTQSFCFVSVIVLSSSVHLHGQNNKMNVLLIIADDMRPELGCYGIEDIVTPRLDSLARYATVFQNAYCNIPVSGASRASLFTGMYPRYPNRFTAFDASAEKDCPEALSLPECFKKNGYYVVSNGKVFHNITDHADSWSEAPWRVHPDGYGKDWAEYNKWELWQNEESSRYVHPKTLRGPFCESADVADTTYIDGRVAQKTIADLRRLHKKEKPFFLACGFWKPHLPFNAPKKYWDLYRREEIHLAQNPYRPKALPKQVTSSGEIRGYGKFVTTKDETFQREAKHGYYACVSYIDAQIGLILDELDRLGLSENTIVVILGDHGWHLGEHGFWGKHNLMNHATRAPLIVRVPHCRGGKAKGIVEFVDIYPTLCELCGVPMPKDQLQGKSFVPILQDSGKKTKQYAFIQWKGGYNIVSEQYSSTIWLQGDSVVARMIFDRQLDASENENKVHCPYLSRERDKLEAQIKIRKSQLLEHHHHHH”, the protein production entry was “failed”.

“MKYTVYLFDFDYTLADSSRGIVTCFRSVLERHGYTGITDDMIKRTIGKTLEESFSILTGITDADQLESFRQEYSKEADIYMNANTILFPDTLPTLTHLKKQGIRIGIISTKYRFRILSFLRNHMPDDWFDIIIGGEDVTHHKPDPEGLLLAIDRLKACPEEVLYIGDSTVDAGTAAAAGVSFTGVTSGMTTAQEFQAYPYDRIISTLGQLISVPEDKSGCPL”: the protein production entry is listed as “not failed”.

Consider “MLAAGEGKRMGACKPLLPLGASTVLAHVAKTLLPAINGPLVVVTGHHGDAVTAEALRLSLETAENTTPQDGMFSSVRTGIAHIVGRVDGVLVLPADIPFVRTATCALVVEAFRRHRAAVTYPTLCGERGHPPLLDADTMRAVLASSGDGGLRGVLLALERQGGTTHDVAVADEGIVTDMDTPADHAQLVARHPLRHIPTPREREALLEMAGTPARVRAHCRMVARAALAMAAHLEATRRGFISPFARQSAPHGISTSGAHAEPRSVPASTTTHAVHAEGNTTLPHTATAHVACPPPDVTTGPMPTCQPGHMPDHMPGTARDAAQQAPAATASPQRLDRPLIHAAATLHDICKGTQRHEAAGGALLTRHGFPEVGSIIAAHRDIAPQAGPEIDEAALVMLADKYVRGVSLIPVEERFDERLREWAHRPDVACDIAARKARVLMVRDLFESETATELFPLLQRKVRRGTFLEHHHHHH”, for which the protein production result is “failed”.

Consider “MLACAIALRLAAAVAAPVDSPTVDVAPPAPAEVAPPGPGRTAAPDLSAPPPPPADRPGPWRVYGAAAAGAAASDVLFAGIFAIGMVQLFGDLWDGEASADAGGLTLALVGLGGFLAVTPAVTVWAAQRVAGRERTAAAYWACFGVRLLGFAAANAFPAATLATELVLAPWVVSRIVMSGAPAATPLRPEVPAPAGADGPATRARPLRDPALAWR”, for which the protein production entry is given as “failed”.

Turning to “MLAERRPAVTPTDGAQVLKALDAQAALLPYALGVFAVSLPLFVWVGSFAANPLWMTASFAIFAINWGVFYAAVSWIRDEPSQDLARRARVQVLCGVLWALAVMQISAFAHNAGPARETLLLLATAGAVLCAFFAAPYLPGLLIIAPLAAAGPLLAQFSSADSRHAGELTFGATALAMTLALILNRMFRRQHDLAISHEQLVVERLRVLEAAERTARSKSDIVATLSHEIRNGLTGVTHVLAAAAGRGGRAAPSREQLNAALDAAQDLIAVLNATLDSETAESGRLQVDARPFDPVRLVQDLALLDKPHAAAKGLELSVHVDPLLRERAKGAAIADALRTRQIVSNLLGNAVKYTVRGRVEVRLELRDDRIAIEVADTGPGLSTEELEQAFEPFRRVERTGAGVNGAGLGLSLSRQLARLMGGALEARSAVGVGSCFTLTLPFDLGAKDEQAEALDTAVAEASGAPRALRVLIAEDDALNAAMLRAVLEQLGHQVVHAANGRRAADLAKIAEFDLLMLDHRMPVMDGPEAASSLRQGDGPNRQTPIVAVIDGDAEEAAEFLEAGAEIVLRKPVSVAGVARALADAAALERTDPAKVAA”, the protein production entry was “failed”.

With “MLAIRRGASMPPLNRSDDLMPGIDEIPERRDEVSLGDLLLEVLRFYQQFGRLLIPLAVLCGVLAGVVVATRPLYAVTALLETPQMSLEQWRKLQPMLADRQLVAASLASMTELPPEQRERLQRAFVLKKYWDTRVTYRSAVERDDIRQQVNIDAKSVGALGLEVSLYARDDAAANQQLDAIAQHVRQVVLWGGLRDYLDSLRQQTLEQRPQLQIDQIQQRYAIEQNERQAADMQQLLERYPELRRNEVNTVVSVGDGGGRYLSPLAQIVALQSTIAGTRTTLRQVERELEQLDGKQRFLARVDQRAPGLHLGRALADWVQSCRRAVFGSGTPSGSALSQVASEIDLALSQQRWRAQLVRYRAIPALSPAPVPSRRPALVALAVFLGVLLVASLGLAMYVIARRNGDRHASWSAHADPLFAWLPQRMRGLLLGPTDARPLGSG”, the protein production result is given as “failed”.

On to “MLAKVLKKRGAVLRGDFVLSSGRRSSVYIDMRRLLGDESSYSVALDLLLEVGGQDLARSSAVIGVATGGLPWAAMLALRLSKPLGYVRPERKGHGTLSQVEGDPPKGRVVVVDDVATTGTSIAKSIEVLRSNGYTVGTALVLVDRGEGAGELLARMGVRLVSVATLKTILEKLGWGGE”, for which the protein production result is listed as “not failed”.

With “MLAPERIHPALWRATQLAHGPTRKLPTGYADLSAQLPGGGWPLGALVELLLPQPGSGEIRLLRPALAQLEARRAIALVQPPHAPHIASWASWRLDPRQLLWVAPERPADALWAAEQILKAGSCAALLCWLPQVRPESLRRLHLAAQGGDALFVALRPAAAEQHASPAVLRLALAPAPGGLSIRIVKRRGPACEHPVHVGLEAGAGLSVFPAPHAPLDRRLPAQPVAGRRTPALVSLEHHHHHH”, the protein production result is “not failed”.

With “MLARALFFVVLSTATFLFLWQFPSTGAQSIPHLDKLVHFGIFFVLALTFHRAFALSAKLSLLILVCYGFLIEIAQSYAPGRSADVYDWLADASGVVAYFILHHLLSKKSR”, the protein production entry is listed as “failed”.

For “MLASLEARYPGLAFAWPRPGVLEITFRGEKLXAMPPALHRGLARVWRDLEAVEGVRAVLLRGEGGVFSAGGSFGLIEEMRASHEALLRVFWEARDLVLGPLXFPRPVVAAVEKVAVGAGLALALAADIAVVGKGTRLLDGHLRLGVAAGDHAVLLWPLLVGMAKAKYHLLLXEPLTGEEAERLGLVALAVEDEKVYEKALEVAERLAQGPKEALHHTKHALXHWYRSFLPHFELSLALEFLGFSGKELEEGLKALKEKRPPEFP”, the protein production result is reported as “not failed”.

With “MLAVFTKSVAGVKLFGMMYPVLERSENLPTDDSIDAIKEIAKALQSVLFKLHINGYSSLLHPLGVNNVDFILKFYVVKDGENDSLRVINVYHKLCGEAEDSWLEIVNNFRGEFSFISMMQRIEASLLLINAVKCYVVSDTLGNLFFRNDYNFGTGGSVCYVHIFGGHYLASGKGLRKLQLPLMETKMEPLIPDDIV”, the protein production result is listed as “failed”.

Regarding “MLAVIEKQGNEYVVQFERYFSYSIEEVWSVLTENSKLKKWMSNLQIESLKTGGIIKFDMMDGSFINIDILECQVNAVLEFTWDKDCVRFEIHKEENDTLLLLKEYIHELTDHTPKDIAGWHICLDLFSSVLEGKEKEFSKDEWKQWFEIYKDKVLELRA”, the protein production entry is “failed”.

With “MLAVKIFDRLPLALVITNASHSVLYANDAFKLMVCLQPDDILAFNPEQFFSPSEPHEIASLFNHLSEGKMWQGELVGLRNNGETFYLDLTVTVFRESHSADLGFAWLFSDVSERKKAAQLEHHHHHH”, the protein production result is “not failed”.

For the sequence “MLCCLRIENFALIDHLELDLQAGLMVLTGETGAGKSIILDALDLALGGKATARLIRAKNDQGDATGERAFIEATFSLTPSIKQWLQSQDIDLLEDETVICSRELSLTRTGLRSRSRVNGIILNQGLMAELRAQLLEITAQGQTVELLIPERQRILLDSYGGSQVQQQRQLVNLAYQTYLKAKQLLESRRTSEQERLQRLDLLQYQLQELRDAHLEDSEELETLQQEGDRLSHVVELQQLSYQAHQILYQNDDPETPAVADLLGEAENLLKEMVDYDTQLNGILD”, the protein production result is given as “failed”.

In the case of “MLCLHTSVHCYENPSVIFSLIYIIICKYMYYNILSATTIFILYSQIVGQNGDDIIKYYHSFLNYVIIFYMSRH”, the protein production entry is recorded as “failed”.

As for “MLDDLDLFVAIVDAGSLSAAAKRMAMPAATLTRRLQALEAELGCKLLNRSARRLVPTNEGWQYYEQCKPLLAALRQAADSLDATLNRVEGVVRAMAPVSMANSLLLPVWQRLLQRHPAVRLELVLSNGTEDVWAMGGDLAIRVGPQPDSQLNQRKLGQVSAVLAAAPSYLEARGRPQAFEQLAGHDLLLTTPLQNWKLHRVDGDEERSLPDGARLLVNDMLLGVRMAEAGCGVVLCPLSQCHRELADGRLERILQDWWIPPRPVYAVWPQRRAMPARVRALLDILLEFAAEEPLLRS”, the protein production entry is listed as “failed”.

For the origin of these results see a protein production outcome set (Wang et al. 2014).
